Experimental findings from the supplement of paper PMC9112550, “Optimization of the antimicrobial peptide Bac7 by deep mutational scanning” (BMC Biology, 2022) are described below.
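Further: peptides expressed intracellularly from a pBAD plasmid library in pooled LB shake-flask culture, induced with 0.3% L-arabinose, DNA abundance read by NGS, three biological replicates, DESeq2 with apeglm shrinkage.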

The test system of this data set is Escherichia coli TOP10. The data set is described as follows: shrunken log2 fold change of peptide-encoding DNA abundance (4.5 h post-induction vs induction); higher = less antimicrobial activity (less host growth inhibition). Conditions: time post-induction: 4.5 h; library: site-saturation at positions 5, 18, 19, 20.
Turning to RRIRPRPPRLPRPRPRPRLIPRP, the “shrunken log2 fold change” value was 0.292. The same measure for RRIRGRPPRLPRPRPRPTKTPRP: 0.0741; for RRIRWRPPRLPRPRPRPGHWPRP: 0.335; for RRIRMRPPRLPRPRPRPFKSPRP: -0.0472.

RRIRCRPPRLPRPRPRPETPPRP: the “shrunken log2 fold change” value was 1.91.

Take RRIRRRPPRLPRPRPRPVNLPRP: the “shrunken log2 fold change” value was determined as 0.219.

On to RRIRHRPPRLPRPRPRPMIWPRP, for which the “shrunken log2 fold change” value was -0.00298. With RRIRTRPPRLPRPRPRPFIAPRP, the “shrunken log2 fold change” value was -0.589. With RRIRLRPPRLPRPRPRPWDDPRP the figure was -0.208.

RRIRHRPPRLPRPRPRPHNHPRP: the “shrunken log2 fold change” value is -0.577.

Turning to RRIRKRPPRLPRPRPRPCMGPRP, the “shrunken log2 fold change” value is 0.045.

As for RRIRARPPRLPRPRPRPDTSPRP, the “shrunken log2 fold change” value was 0.435.

Consider RRIRKRPPRLPRPRPRPRHSPRP, for which the “shrunken log2 fold change” value came to 0.152. Take RRIRGRPPRLPRPRPRPKITPRP: the “shrunken log2 fold change” value was determined as 0.413.

With RRIRLRPPRLPRPRPRPFKHPRP, the “shrunken log2 fold change” value is -0.156. With RRIRFRPPRLPRPRPRPRLRPRP, the “shrunken log2 fold change” value was found to be 0.378. The same measure for RRIRDRPPRLPRPRPRPNQHPRP: -0.283; for RRIRKRPPRLPRPRPRPSRRPRP: 0.337.

Take RRIRCRPPRLPRPRPRPSSHPRP: the “shrunken log2 fold change” value was -0.0983. Regarding RRIRYRPPRLPRPRPRPGPRPRP, the “shrunken log2 fold change” value came to 0.744. On to RRIRQRPPRLPRPRPRPTNAPRP, for which the “shrunken log2 fold change” value is -0.309. Turning to RRIRQRPPRLPRPRPRPLKAPRP, the “shrunken log2 fold change” value was -0.253. As to RRIRMRPPRLPRPRPRPNHWPRP, the “shrunken log2 fold change” value stood at 0.14. The same measure for RRIRHRPPRLPRPRPRPQCYPRP: -0.75; for RRIRHRPPRLPRPRPRPWYMPRP: -0.324. With RRIRIRPPRLPRPRPRPGRKPRP the figure was 0.0417; with RRIRPRPPRLPRPRPRPYHIPRP, -0.672; with RRIRERPPRLPRPRPRPDFIPRP, -0.092. The same measure for RRIRNRPPRLPRPRPRPCESPRP: -0.00141; for RRIRNRPPRLPRPRPRPKQGPRP: 0.0554; for RRIRGRPPRLPRPRPRPDHKPRP: -0.154.

Take RRIRLRPPRLPRPRPRPVETPRP: the “shrunken log2 fold change” value came to 0.217.

RRIRTRPPRLPRPRPRPYCCPRP: the “shrunken log2 fold change” value is -0.364.

With RRIRPRPPRLPRPRPRPRCQPRP, the “shrunken log2 fold change” value was found to be 0.273.

As for RRIRQRPPRLPRPRPRPASIPRP, the “shrunken log2 fold change” value is -0.0578. Regarding RRIRFRPPRLPRPRPRPRSIPRP, the “shrunken log2 fold change” value is -0.256. The same measure for RRIRCRPPRLPRPRPRPNANPRP: -0.353; for RRIRNRPPRLPRPRPRPHIMPRP: -0.122; for RRIRLRPPRLPRPRPRPTGDPRP: -0.00286.

Regarding RRIRCRPPRLPRPRPRPQPSPRP, the “shrunken log2 fold change” value turned out to be 0.228. With RRIRPRPPRLPRPRPRPYNLPRP the figure was -0.708; with RRIRERPPRLPRPRPRPTKWPRP, 0.155; with RRIRQRPPRLPRPRPRPLYKPRP, -1.34. Turning to RRIRRRPPRLPRPRPRPPPPPRP, the “shrunken log2 fold change” value was found to be 1.03.

With RRIRGRPPRLPRPRPRPDNSPRP, the “shrunken log2 fold change” value is 0.0661. Consider RRIRKRPPRLPRPRPRPVWVPRP, for which the “shrunken log2 fold change” value turned out to be 0.15.

With RRIRMRPPRLPRPRPRPFAPPRP, the “shrunken log2 fold change” value came to 0.633. The same measure for RRIRYRPPRLPRPRPRPCNRPRP: -0.182. For RRIRARPPRLPRPRPRPAHSPRP, the “shrunken log2 fold change” value amounted to 0.469. Regarding RRIRHRPPRLPRPRPRPQYMPRP, the “shrunken log2 fold change” value is -0.252.

RRIRERPPRLPRPRPRPNNKPRP: the “shrunken log2 fold change” value is -0.849.

Regarding RRIRERPPRLPRPRPRPLNSPRP, the “shrunken log2 fold change” value was -0.432. With RRIRYRPPRLPRPRPRPWPRPRP the figure was 0.209; with RRIRGRPPRLPRPRPRPAQIPRP, 0.592; with RRIRIRPPRLPRPRPRPDDWPRP, -0.0592.

For the sequence RRIRHRPPRLPRPRPRPNMEPRP, the “shrunken log2 fold change” value was -0.0709. Take RRIRFRPPRLPRPRPRPEYIPRP: the “shrunken log2 fold change” value is -0.0963. For RRIRSRPPRLPRPRPRPCLCPRP, the “shrunken log2 fold change” value was -1.28.

Regarding RRIRRRPPRLPRPRPRPIMEPRP, the “shrunken log2 fold change” value is 0.161. With RRIRVRPPRLPRPRPRPMPRPRP the figure was 0.24; with RRIRNRPPRLPRPRPRPVHKPRP, -0.182; with RRIRKRPPRLPRPRPRPMMSPRP, -0.00973. With RRIRHRPPRLPRPRPRPNITPRP the figure was -0.489. RRIRWRPPRLPRPRPRPDRTPRP: the “shrunken log2 fold change” value is 0.179.

For RRIRCRPPRLPRPRPRPEGQPRP, the “shrunken log2 fold change” value amounted to 0.788. RRIRTRPPRLPRPRPRPVPPPRP: the “shrunken log2 fold change” value came out at 0.396.

RRIRTRPPRLPRPRPRPCQFPRP: the “shrunken log2 fold change” value was -0.0244. For the sequence RRIRNRPPRLPRPRPRPLNCPRP, the “shrunken log2 fold change” value was -0.415. For RRIRSRPPRLPRPRPRPSELPRP, the “shrunken log2 fold change” value was -0.215. With RRIRPRPPRLPRPRPRPESRPRP the figure was 0.11; with RRIRKRPPRLPRPRPRPWRQPRP, 0.182. With RRIRPRPPRLPRPRPRPKVNPRP the figure was -0.148. With RRIRERPPRLPRPRPRPGMMPRP the figure was -0.235.

Regarding RRIRNRPPRLPRPRPRPQCPPRP, the “shrunken log2 fold change” value was -0.33.

As to RRIRARPPRLPRPRPRPSHAPRP, the “shrunken log2 fold change” value came out at 0.333. With RRIRVRPPRLPRPRPRPTDDPRP the figure was -0.183. With RRIRDRPPRLPRPRPRPGGCPRP the figure was 0.687; with RRIRERPPRLPRPRPRPNKLPRP, -0.596. Take RRIRYRPPRLPRPRPRPTVNPRP: the “shrunken log2 fold change” value was -0.45. In the case of RRIRFRPPRLPRPRPRPYKPPRP, the “shrunken log2 fold change” value came to 0.108. The same measure for RRIRPRPPRLPRPRPRPTKRPRP: 0.265; for RRIRSRPPRLPRPRPRPAPKPRP: 0.569; for RRIRSRPPRLPRPRPRPVSVPRP: 0.0162. The same measure for RRIRERPPRLPRPRPRPDTGPRP: -0.161. With RRIRNRPPRLPRPRPRPSHIPRP the figure was -0.69; with RRIRTRPPRLPRPRPRPHTTPRP, -0.166. Consider RRIRDRPPRLPRPRPRPRRIPRP, for which the “shrunken log2 fold change” value is 0.0214. The same measure for RRIRKRPPRLPRPRPRPCDDPRP: -0.0472.

In the case of RRIRTRPPRLPRPRPRPDMFPRP, the “shrunken log2 fold change” value was -0.0274.

In the case of RRIRCRPPRLPRPRPRPDYHPRP, the “shrunken log2 fold change” value is -0.903. With RRIRMRPPRLPRPRPRPGKSPRP the figure was 0.0127; with RRIRWRPPRLPRPRPRPTLEPRP, 0.608; with RRIRNRPPRLPRPRPRPLIQPRP, -0.327. With RRIRWRPPRLPRPRPRPKRCPRP the figure was 0.0577; with RRIRHRPPRLPRPRPRPASVPRP, -0.00985; with RRIRYRPPRLPRPRPRPMIYPRP, -0.0142. As to RRIRCRPPRLPRPRPRPKLRPRP, the “shrunken log2 fold change” value came out at 0.564. RRIRARPPRLPRPRPRPQWCPRP: the “shrunken log2 fold change” value is -0.0868. As for RRIRDRPPRLPRPRPRPMTGPRP, the “shrunken log2 fold change” value is 0.0274. With RRIRLRPPRLPRPRPRPVMKPRP the figure was -0.13; with RRIRYRPPRLPRPRPRPFVAPRP, -0.696; with RRIRQRPPRLPRPRPRPPTQPRP, 0.0976. Take RRIRCRPPRLPRPRPRPQMLPRP: the “shrunken log2 fold change” value stood at 0.0498. With RRIRMRPPRLPRPRPRPWHTPRP the figure was 0.0985; with RRIRLRPPRLPRPRPRPRHDPRP, 0.0303. With RRIRWRPPRLPRPRPRPSLQPRP the figure was 0.0895; with RRIRTRPPRLPRPRPRPIPEPRP, -0.0588; with RRIRMRPPRLPRPRPRPTFVPRP, 0.134.

In the case of RRIRCRPPRLPRPRPRPRGCPRP, the “shrunken log2 fold change” value worked out at 0.395. Regarding RRIRKRPPRLPRPRPRPGVHPRP, the “shrunken log2 fold change” value turned out to be 0.195.

With RRIRPRPPRLPRPRPRPYNGPRP, the “shrunken log2 fold change” value was -0.656.

On to RRIRNRPPRLPRPRPRPLTGPRP, for which the “shrunken log2 fold change” value came out at 0.0323. Consider RRIRIRPPRLPRPRPRPKWMPRP, for which the “shrunken log2 fold change” value is -0.178. Regarding RRIRMRPPRLPRPRPRPDIHPRP, the “shrunken log2 fold change” value stood at 0.335.

Regarding RRIRWRPPRLPRPRPRPHTGPRP, the “shrunken log2 fold change” value was -0.233.

For RRIRQRPPRLPRPRPRPFYSPRP, the “shrunken log2 fold change” value was -0.174.

As to RRIRTRPPRLPRPRPRPSGFPRP, the “shrunken log2 fold change” value was 0.131. With RRIRARPPRLPRPRPRPELFPRP, the “shrunken log2 fold change” value came out at 0.7. The same measure for RRIRARPPRLPRPRPRPDPDPRP: 1.3; for RRIRKRPPRLPRPRPRPGDSPRP: 0.163; for RRIRTRPPRLPRPRPRPKNVPRP: 0.0149. With RRIRHRPPRLPRPRPRPLCPPRP the figure was -0.138; with RRIRRRPPRLPRPRPRPKNEPRP, 0.294; with RRIRTRPPRLPRPRPRPYLPPRP, -0.513. With RRIRARPPRLPRPRPRPQSEPRP the figure was 0.152.
